Experimental findings from doi:10.1101/2023.03.10.531533 (bioRxiv, 2023) are described below.

Experiment [1] has as its target recombinant SARS-CoV-1 spike protein (SARS-CoV-1, isolate , UniProt P59594, stabilised). Put plainly: ELISA. (In an ELISA, binding on a coated surface is turned into a signal by an enzyme label.)
The target in experiment [2] is mouse Fc-tagged SARS-CoV-2 RBD (SARS-CoV-2, Wuhan-Hu-1 (assumed from …, UniProt P0DTC2)). In words: ELISA.
For experiment [3], the target named is HR2 protein, residues H1159-K1211 of the SARS-CoV-2 spike (SARS-CoV-2, UniProt P0DTC2). Put plainly: crystal structure.

B1: VHH R3DC23 (VHH)
VHH: QVQLQESGGGLVQAGDSLTLSCAVSGRIFSTYTMGWFRQAPGKEREFVAAVRWGAGTIYYADSMKGRFTISRDSAKNTVDLQMNSTKPEDTAVYYCGAAYVSKANYGSLWYQDSRRYDYWGQGTQVTVSS
Regarding B1, the figures for the binding result in experiment [1], in experiment [2] and in experiment [3] were “binds”, “no binding” and “binds”, respectively.
